Results: the DeepSol protein solubility set

Test: soluble on expression in E. coli; label from the status in PepcDB or PDB records

Sequence	soluble on expression in E. coli
MNSRMSKLRRSISRSVFQLNSSLSRQNSLNGLVDLPTMSNTTLVDKFATPSNFRQLRDLIRNNNELLAEVVTAFEEKAALDFHYSKTLKKISIRLHKLTQSVESGIDKGWTNVAEQFDIHATIHSNLGSAITEDIIQPLRSIQSNQQKTIRAADNFVEREIRKLKDKKDETQKMKRSLYVLAKELEKTENSAEREKAQPEKFALRRKKYKDQMIRSEDDYVWQTVDLEKQRRMTENVLRKGVESMESVERQRLAHCQTALGRYKRKIETLGPNLRQMFERHSNNLELAVDSVPEDYIQTIQPSTSAVNHITLIDLHAENFGEVMSSTRRRQNLERVSGVLDSELKRLYNNQTADVMVSNSKQISVLEFIEYLYYKLNDSINIVDGGQNRGFHRLSRFQHKIKDKSGLPMTILTIPLSGDNNSLPPPCLSMEASTAYPSPRGSGEYEEYEKISDDGFYSTTTTSSNGGPIRTTTTFDEPTSSPPTICRVLYDFEPKHADEIEIREGQCVLVEDRIGDDWLIGHVISQHDNSSIDPRSGRFPTTYVSLRQ	not soluble
MNEFEDLLNSVSQVETGDVVSAEVLTVDATQANVAISGTGVEGVLTLRELTNDRDADINDFVKVGEVLDVLVLRQVVGKDTDTVTYLVSKKRLEARKAWDKLVGREEEVVTVKGTRAVKGGLSVEFEGVRGFIPASMLDTRFVRNAERFVGQEFDTKIKEVNAKENRFILSRREVVEAATAAARAEVFGKLAVGDVVTGKVARITSFGAFVDLGGVDGLVHLTELSHERNVSPKSVVTVGEEIEVKILDLNEEEGRVSLSLKATVPGPWDGVEQKLAKGDVVEGTVKRLTDFGAFVEVLPGIDGLVHVSQISHKRIENPKEALKVGQEVQVKVLEVNADAERVSLSIKALEERPAQEEGQKEEKRAARPRRPRRQEKRDFELPETQTGFSMADLFGDIELLEHHHHHH	soluble
AKQAAQSTFNSFHEWAKQAEAMRNPSRMDIYKIYKQDAPHSHPMSDEQQEEFLHTLKALNGKNGIEVRTQDHDSVRNKKDRNLDKYIAESPDAKRFFYRIIPKHERREDKNQGRLTIGVQPQYATQLTRAMATLIGKESAITHGKVIGPACHGQMTDSAVLYINGDVAKAEKLGEKLKQMSGIPLDAFVEHTPLSMQSLSKGLSYAESILGDTRGHGMSRAEVISDALRMDGMPFLARLKLSLSANGYDPDNPALRNTK	soluble
MQDEVVLLDFWPSPFGMRVRIALAEKGIKYEYKEEDLRNKSPLLLQMNPVHKKIPVLIHNGKPICESLIAVQYIEEVWNDRNPLLPSDPYQRAQTRFWADYVDKKIYDLGRKIWTSKGEEKEAAKKEFIEALKLLEEQLGDKTYFGGDNLGFVDIALVPFYTWFKAYETFGTLNIESECPKFIAWAKRCLQKESVAKSLPDQQKVYEFIMDLRKKLGIE	soluble
MGASMTGGQQMGAPITAYAQQTRGLLGCIITSLTGRDKNQVEGEVQIVSTATQTFLATCINGVCWTVYHGAGTRTIASPKGPVIQMYTNVDQDLVGWPAPQGSRSLTPCTCGSSDLYLVTRHADVIPVRRRGDSRGSLLSPRPISYLKGSSGGPLLCPAGHAVGLFRAAVCTRGVAKAVDFIPVENLETTMRSGSHHHHHH	soluble
MKKSLIAFILIFMLVLSGCGMKDNDKQGSNDNGSSKSPYHRIVSLMPSNTEILYELGLGKYIVGVSTVDDYPKDVKKGKKQFDALNLNKEELLKAKPDLILAHESQKATANKVLSSLEKQGIKVVYVKDAQSIDETYNTFKQIGKLTHHDKQAEQLVEETKDNIDKVIDSIPAHHKKSKVFIEVSSKPEIYTAGKHTFFNDMLEKLEAQNVYSDINGWNPVTKESIIKKNPDILISTEAKTRSDYMDIIKKRGGFNKINAVKNTRIEVVNGDEVSRPGPRIDEGLKELRDAIYRK	not soluble
MGSDKIHHHHHHMATETRVASLPSIDAAALAAIEGCALVDLLLPDTNGVLRGKRVTREALDKVYRDGVCLPMSLIATDITGNTVEETGLGYAIGDADRICRPIAGSLRPVPWAPQPMAQLLLAMHTPNGALFEVAPRAVLQRVVQGFAALGLTPVIAVELEFYLFDAMADAQGRPQTPRDAHTGERNTSTQVYALQDLDDHRSFTDAVTAACRQQGIPADTAVAEYAPGQFEINLQHRADAVAACDEALLLKRTIKAIAQQQHLLASFMAKPFAGQAGSGLHVHVSLLDAAGHNVLHGTADAPAAALRHAIAGLQRHADASLLLFAPHANSYRRFVPNAFVPLDASWGFNNRTVALRIPHSDAHNTRIEHRIAGADANPYLVAAAVLAAMLDGLQHPGDPTAPVQGNAYAQATFTPRTWQGAVDAFLRSDFIATQLGTQFQHVFGQQKQRELLDYQALVPDLDYARYLRTV	not soluble
